Read-outs that look alike come from different tables or passages of the source. Values belong to the binder of their own block, whether it stands above or below them.
What was measured:
[1] = target: T1, O5-bP; assay: two-hybrid library CCNG1;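 note: natural log of median RNA to DNA barcode read ratio; higher means stronger binding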
T1 chain: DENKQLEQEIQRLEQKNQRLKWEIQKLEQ

[2] = target: T2, O3-bP; assay: two-hybrid library CCNG1;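 note: natural log of median RNA to DNA barcode read ratio; higher means stronger binding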
T2 chain: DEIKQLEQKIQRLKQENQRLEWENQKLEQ

[3] = target: T3, O7-bP; assay: two-hybrid library CCNG1;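 note: natural log of median RNA to DNA barcode read ratio; higher means stronger binding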
T3 chain: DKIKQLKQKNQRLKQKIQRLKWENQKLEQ

[4] = target: T4, O16-bP; assay: two-hybrid library CCNG1;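 note: natural log of median RNA to DNA barcode read ratio; higher means stronger binding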
T4 chain: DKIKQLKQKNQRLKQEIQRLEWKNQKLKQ

[5] = target: T5, O2-bP; assay: two-hybrid library CCNG1;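 note: natural log of median RNA to DNA barcode read ratio; higher means stronger binding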
T5 chain: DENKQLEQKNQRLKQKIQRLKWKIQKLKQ

[6] = target: T6, O12-bP; assay: two-hybrid library CCNG1;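 note: natural log of median RNA to DNA barcode read ratio; higher means stronger binding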
T6 chain: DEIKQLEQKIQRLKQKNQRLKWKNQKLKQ

[7] = target: T7, O6-bP; assay: two-hybrid library CCNG1
T7 chain: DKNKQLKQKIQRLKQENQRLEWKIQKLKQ

[8] = target: T8, O14-bP; assay: two-hybrid library CCNG1
T8 chain: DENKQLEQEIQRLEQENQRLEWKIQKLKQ

[9] = target: T9, O4-bP; assay: two-hybrid library CCNG1
T9 chain: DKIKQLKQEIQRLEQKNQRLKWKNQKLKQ

[10] = target: T10, O15-bP; assay: two-hybrid library CCNG1
T10 chain: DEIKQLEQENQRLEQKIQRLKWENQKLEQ

[11] = target: T11, O11-bP; assay: two-hybrid library CCNG1
T11 chain: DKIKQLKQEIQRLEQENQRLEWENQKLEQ

[12] = target: T12, O10-bP; assay: two-hybrid library CCNG1; details: mean of both orientations
T12 chain: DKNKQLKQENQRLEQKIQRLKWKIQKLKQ

[13] = target: T13, O9-bP; assay: two-hybrid library CCNG1; details: mean of both orientations
T13 chain: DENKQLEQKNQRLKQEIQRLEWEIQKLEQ

[14] = target: T14, O8-bP; assay: two-hybrid library CCNG1
T14 chain: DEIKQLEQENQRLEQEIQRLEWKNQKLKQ

[15] = target: T15, O13-bP; assay: two-hybrid library CCNG1
T15 chain: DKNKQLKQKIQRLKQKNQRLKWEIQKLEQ

[16] = target: T16, Core_NNNN-es_KEEE; assay: two-hybrid library CCmax
T16 chain: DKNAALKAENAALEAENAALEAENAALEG

[17] = target: T17, 4H2592-AA; assay: two-hybrid library CCmax; details: mean of both orientations
T17 chain: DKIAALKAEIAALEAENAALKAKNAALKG

[18] = target: T18, 4H2330-AA; assay: two-hybrid library CCmax; details: mean of both orientations
T18 chain: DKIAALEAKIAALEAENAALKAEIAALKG

[19] = target: T19, 4H56-AA; assay: two-hybrid library CCmax; details: mean of both orientations
T19 chain: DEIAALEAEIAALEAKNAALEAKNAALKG

[20] = target: T20, 4H2124-AA; assay: two-hybrid library CCmax
T20 chain: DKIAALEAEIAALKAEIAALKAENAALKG

[21] = target: T21, 4H_BCR; assay: two-hybrid library CCmax; details: mean of both orientations
T21 chain: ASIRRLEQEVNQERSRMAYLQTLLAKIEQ

[22] = target: T22, 4H3438-AA; assay: two-hybrid library CCmax; details: mean of both orientations
T22 chain: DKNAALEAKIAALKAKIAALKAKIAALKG

[23] = target: T23, 4H2732-AA; assay: two-hybrid library CCmax; details: mean of both orientations
T23 chain: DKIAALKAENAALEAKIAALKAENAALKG

[24] = target: T24, 4H2774-AA; assay: two-hybrid library CCmax; details: mean of both orientations
T24 chain: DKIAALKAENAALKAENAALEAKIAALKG

[25] = target: T25, 4H2466-AA; assay: two-hybrid library CCmax; details: mean of both orientations
T25 chain: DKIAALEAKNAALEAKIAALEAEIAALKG

[26] = target: 4H_GCN4; assay: two-hybrid library CCmax
[27] = target: T26, 4H2931-AA; assay: two-hybrid library CCmax; details: mean of both orientations
T26 chain: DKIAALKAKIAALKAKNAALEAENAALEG

[28] = target: T27, 4H3015-AA; assay: two-hybrid library CCmax; details: mean of both orientations
T27 chain: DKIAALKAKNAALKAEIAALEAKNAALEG

[29] = target: T28, 4H347-AA; assay: two-hybrid library CCmax; details: mean of both orientations
T28 chain: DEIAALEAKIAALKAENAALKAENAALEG

[30] = target: T29, 4H3001-AA; assay: two-hybrid library CCmax; details: mean of both orientations
T29 chain: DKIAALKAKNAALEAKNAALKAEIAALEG

[31] = target: T30, 4H406-AA; assay: two-hybrid library CCmax; details: mean of both orientations
T30 chain: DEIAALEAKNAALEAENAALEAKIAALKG

[32] = target: T31, 4H3073-AA; assay: two-hybrid library CCmax; details: mean of both orientations
T31 chain: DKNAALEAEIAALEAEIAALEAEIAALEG

[33] = target: T32, 4H_APH; assay: two-hybrid library CCmax
T32 chain: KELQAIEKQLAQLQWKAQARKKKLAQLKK

[34] = target: T33, 4H1828-AA; assay: two-hybrid library CCmax; details: mean of both orientations
T33 chain: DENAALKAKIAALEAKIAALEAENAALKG

[35] = target: T34, 4H452-AA; assay: two-hybrid library CCmax; details: mean of both orientations
T34 chain: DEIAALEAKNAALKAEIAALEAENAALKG

[36] = target: T35, 4H249-AA; assay: two-hybrid library CCmax; details: mean of both orientations
T35 chain: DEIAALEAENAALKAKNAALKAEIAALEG

[37] = target: T36, 4H2253-AA; assay: two-hybrid library CCmax; details: mean of both orientations
T36 chain: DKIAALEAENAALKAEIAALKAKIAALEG

[38] = target: T37, 4H2343-AA; assay: two-hybrid library CCmax; details: mean of both orientations
T37 chain: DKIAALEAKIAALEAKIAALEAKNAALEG

[39] = target: GCN2_T; assay: two-hybrid library CCmax; details: mean of both orientations
[40] = target: T38, 4H1930-AA; assay: two-hybrid library CCmax; details: mean of both orientations
T38 chain: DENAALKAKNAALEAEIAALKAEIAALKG

[41] = target: T39, 4H1821-AA; assay: two-hybrid library CCmax; details: mean of both orientations
T39 chain: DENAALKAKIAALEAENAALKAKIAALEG

[42] = target: T40, 4H1765-AA; assay: two-hybrid library CCmax
T40 chain: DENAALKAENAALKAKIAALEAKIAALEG

[43] = target: T41, 4H2165-AA; assay: two-hybrid library CCmax; details: mean of both orientations
T41 chain: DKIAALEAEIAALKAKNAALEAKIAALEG

Chain of 4H_GCN4 (chain, as listed by the source): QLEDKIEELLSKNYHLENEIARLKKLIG

interaction score [1]: -0.843
interaction score [2]: -0.676
interaction score [3]: -1.18
interaction score [4]: -0.76
interaction score [5]: 0.624
interaction score [6]: -1.28
interaction score [7]: -1.19
interaction score [8]: -0.56
interaction score [9]: -0.826
interaction score [10]: -0.788
interaction score [11]: -1.97
interaction score [12]: -0.552
interaction score [13]: 0.966
interaction score [14]: -1.81
interaction score [15]: -0.892
B1: O10-bP (peptide)
chain: DKNKQLKQENQRLEQKIQRLKWKIQKLKQ

interaction score ([16]; mean of both orientations): 1.14
B2: Core_NNNN-es_EKKK (peptide)
chain: DENAALEAKNAALKAKNAALKAKNAALKG

interaction score [17]: -1.67
interaction score [18]: -1.37
interaction score [19]: -1.76
interaction score [20]: -1.72
interaction score [21]: -1.93
interaction score [22]: -0.901
interaction score [23]: -1.76
interaction score [24]: -1.4
interaction score [25]: -1.7
interaction score [26]: -1.69
interaction score [27]: -1.83
interaction score [28]: -1.7
interaction score [29]: -1.81
interaction score [16]: -0.679
interaction score [30]: -2.1
interaction score [31]: -1.54
interaction score [32]: -1.02
interaction score [33]: -2.38
interaction score [34]: -0.973
interaction score [35]: -1.48
interaction score [36]: -1.63
interaction score [37]: -1.14
interaction score [38]: -1.45
interaction score [39]: -1.28
interaction score [40]: -1.21
interaction score [41]: -1.42
interaction score [42]: 2.4
interaction score [43]: -1.25
B3: 4H1765-AA (peptide)
chain: DENAALKAENAALKAKIAALEAKIAALEG
